Results as given in patent publication US10556936B2, “Immunogenic proteins and fragments thereof from allergenic mites” (ALK-ABELLÓ A/S, priority 2016, dated 2020).

B1: A014: house dust mite protein; SEQ ID NO: 32 (Der f), 33 (Der p) (protein)
chain: IEQVHIALGSNETEIIVTWTEPHKHDDKTSDAVVYYGQAKSSFDQKVKAISEYFKDDKTKYTTYRALLTGLLPGTEYHYRIQMDDLESSIFEFKTLKTGEENWLPRFAIYGDLGYVNEQSLPYLKKDVEQNLFDVIFHIGDFAYDLNDEHGKVGHHFMRSIEPVASKVAYMTCPGNHERHDNFSHYDSRFSMIGDRSQPIHSDKLNKRLNNHFHSMTIGPATIILFSTEYYYYTKYGWQQIEHQYRWLEQELKRANENRQKHPWIIVMGHRPLYCLKMGDDSCDHQTMERKEIRQGIRMHDEGERQYGLEDLFFKYGVDIQFYGHEHFYARLFPIYKYKMYNGTKSKNPYDHPGAPIHITTGSAGNKELHPEFNHLNDWVAEHFYDYGYTRLMFEDKYRIRLQQISDDQHGKVLDEIEIVKSSPQPHWMNVEHH
B2: A012: house dust mite protein; SEQ ID NO: 22 (Der p), 38 (Der f), 310 (Blo t) (protein)
chain: QSRDRNDKPYRIVCYWGTWAFYRPASGKFQAENVNPNLCTHIMYGFAKLQNNKIALYDPDLDDGDEDWNSGLQWGHGMIRRMVNLRTYNPHLTTMISLGGWNEGSDKYSIMVRDPASRKIFIQSVLHLLAEFDLDGLDFDWEYPAMQASGDSDRKPGRAEDKEDFVTLLRELHEAFQPHGYVLSSAVSAGKPTIDRAYNIPEVSKYLDFINLMSYDYHGGWESHTGHNAPLNSYKNANELDKEFTVTYSVEYWLNHGVDPKKLVLGIPLYGRTFTLAGSEHGIGAPTIGKGGESGTITRTIGMLGYNEICTMIKQGWQLYRDEIERIPYAVHANQWIGYDDRESVNEKLNLLMAKHLGGAMVWSIDTDDFVGNCVGVKYPLLRSISKKLNNVDGPDPDIKRYHYHTSTAKPHTDGTTSTHHDHKTTTTKHHKTTQPHHKTTQPHHTQTITTTTERPHGKFQCHQAGFFADPENPRKFHQCVDFGGHLKDYEFMCGEGTHYDEKLHICVR
B3: A013: house dust mite protein; SEQ ID NO: 36 (Der f), 37 (Der p), 311 (Blo t) (protein)
chain: DTPANCTYEDIKGLWLFEETEPIKDRWEKCPEHQQQREKYSKKIFIRLDFPNVAVDKFGNIGEWTMIYNQGFEVKINYRKYFAFSAYERKSENNVLSYCHKTQPGWSHDVLGNNWACYVGHKVNNWNDDDVSKTTTVGAEKFPVKQHSERELYLQNINVEHILSQKHIDHLNSQQKSWKAIVYPDLQSKSIEHLIQMAGGRKSRIINRPKPLRATEQQKQLARSLPESFDWRNLNGIDYVSPVRDQGKCGSCYTFASMAMLESRIRIQTNNTFKPIFSTQEVVDCSEYSQGCDGGFSYLIAGKYAQDFGVIDESCYPYKGVTGKCQNQQNFNQTNEKCKQRTYTIDYKYVGGYFGACNEEAMQIELVQNGPIAVGFEVYGDFFGYSEGIYSHQPSNESNDQHQQIKAEFNPFEMTNHAVLIVGYGKDKKTGEKYWIVKNSWGKQWGMDGYFWMRRGTDECAIESLAMAATPIPN

System: basophils in whole blood from HDM allergic donors
Experiment: Basophil Activation Test (BAT)
Format: cell-based, human
Conditions: 1 ng/ml; blood from HDM allergic individuals (n=14)
Method: Basophil Activation Test (BAT) was used as a predictive in vitro assay for indication of safety/immediate hypersensitivity reactions. The BAT assay is a widely used diagnostic test that is also used for evaluation of allergenicity of allergen derived components. In short: whole blood from HDM allergic donors was stimulated for 1 h with the proteins, and the increased expression of activation markers on the surface of basophils were measured by flow cytometry. The BAT test was carried out using different concentrations of the proteins and the allergens Der p 2 and Der p 1 was used as controls and tested in the same concentration rates.
(§1) This example relates to the further testing of immunogenicity of the proteins identified in Example 1. Their ability to react with IgE antibodies in HDM allergic individuals, to stimulate in vitro T cell proliferation of HDM allergic individuals and non-allergics, and to stimulate ex vivo cytokine production of HDM allergic individuals and non-allergics. The following tests were used: • Basophil Activation Test (BAT) was used as a predictive in vitro assay for indication of safety/immediate hypersensitivity reactions. BAT test was carried out using blood from HDM allergic individuals (n=14), and by use of different concentrations of test proteins or the major house dust mite allergens (Der p 1, Der f 1, Der p 2 or Der f 2, e.g. a concentration of 1, 10, 100 or 1000 ng/ml. • In vitro T cell reactivity determined in T cell lines obtained from HDM allergic individuals (n=30) and non-allergics (n=8): Determined by establishment of HDM specific T-cell lines according to standard methods. In short, PMBCs from HDM allergic donors were cultured for 3 weeks in the presence of house dust mite allergen extract. The responses to proteins at a concentration of 0.5 ug/ml or 2 ug/ml of the test protein or the major house dust mite allergens (Der p 1, Der f 1, Der p 2 or Der f 2) were assessed by proliferation in a standard 72 h T cell proliferation assay, as described in Henmar H et al., Clin Exp Immunol 2008; 153(3):316-23. […]. • Ex vivo stimulation of PBMC cells obtained from mite allergic patients (n=16) and non-allergics (n=6): Determined by measuring the production of the cytokines; IFN-gamma, IL-9, IL-10, IL-17 and IL-31 following stimulation with test protein in concentration up to 10 ug/ml. Freshly isolated PBMC 5×10^6/ml were cultured with a test protein for 5 days and cell supernatant were harvested and stored at −80° C. Cytokines of the supernatants were measured using ProcartaPlex Multiplex Immunoassays with MAGPIX Multiplex Reader according manufactory protocol.

Molecule	# of individuals of 14 with positive BAT test
B1	0
B2	0
B3	0

Same assay, conditions: 10 ng/ml; blood from HDM allergic individuals (n=14)

Molecule	# of individuals of 14 with positive BAT test
B1	0
B2	0
B3	0

Same assay, conditions: 100 ng/ml; blood from HDM allergic individuals (n=14)

Molecule	# of individuals of 14 with positive BAT test
B1	0
B2	0
B3	0

Same assay, conditions: 1000 ng/ml; blood from HDM allergic individuals (n=14)

Molecule	# of individuals of 14 with positive BAT test
B1	0
B2	0
B3	0

System: T cell lines obtained from HDM allergic individuals and non-allergics
Experiment: In vitro T cell proliferation test in T cell lines (Example 3)
Format: cell-based, human
Conditions: T cell lines from HDM allergic individuals (n=30); 0.5 or 2 ug/ml; 72 h
Source text: as §1

Molecule	% responders of in-vitro T cell proliferation test, Allergic
B1	43%
B2	39%
B3	18%

Same assay, conditions: T cell lines from non-allergics (n=8); 0.5 or 2 ug/ml; 72 h

Molecule	% responders of in-vitro T cell proliferation test, Non-allergics
B1	0%
B2	13%
B3	13%

System: PBMC cells obtained from mite allergic patients and non-allergics
Experiment: Ex vivo stimulation of PBMC: cytokine production (IFN-gamma, IL-9, IL-10, IL-17, IL-31)
Format: cell-based, human
Conditions: HDM allergic individuals; IL-5
Source text: as §1

Molecule	% HDM allergic individuals with cytokine production in ex-vivo T cell assay IL-5
B1	6%
B2	69%
B3	50%

Same assay, conditions: HDM allergic individuals; IL-9

Molecule	% HDM allergic individuals with cytokine production in ex-vivo T cell assay IL-9
B1	0%
B2	25%
B3	25%

Same assay, conditions: HDM allergic individuals; IL-10

Molecule	% HDM allergic individuals with cytokine production in ex-vivo T cell assay IL-10
B1	25%
B2	19%
B3	38%

Same assay, conditions: HDM allergic individuals; IL-13

Molecule	% HDM allergic individuals with cytokine production in ex-vivo T cell assay IL-13
B1	6%
B2	44%
B3	38%

Same assay, conditions: HDM allergic individuals; IL-17

Molecule	% HDM allergic individuals with cytokine production in ex-vivo T cell assay IL-17
B1	31%
B2	19%
B3	6%

Same assay, conditions: HDM allergic individuals; IL-31

Molecule	% HDM allergic individuals with cytokine production in ex-vivo T cell assay IL-31
B1	0%
B2	0%
B3	0%

Same assay, conditions: HDM allergic individuals; INF-g

Molecule	% HDM allergic individuals with cytokine production in ex-vivo T cell assay INF-g
B1	13%
B2	0%
B3	0%

Same assay, conditions: non-allergic individuals; IL-5

Molecule	% non-allergic individuals with cytokine production in ex-vivo T cell assay IL-5
B1	0%
B2	0%
B3	0%

Same assay, conditions: non-allergic individuals; IL-9

Molecule	% non-allergic individuals with cytokine production in ex-vivo T cell assay IL-9
B1	0%
B2	0%
B3	0%

Same assay, conditions: non-allergic individuals; IL-10

Molecule	% non-allergic individuals with cytokine production in ex-vivo T cell assay IL-10
B1	33%
B2	67%
B3	0%

Same assay, conditions: non-allergic individuals; IL-13

Molecule	% non-allergic individuals with cytokine production in ex-vivo T cell assay IL-13
B1	0%
B2	0%
B3	0%

Same assay, conditions: non-allergic individuals; IL-17

Molecule	% non-allergic individuals with cytokine production in ex-vivo T cell assay IL-17
B1	33%
B2	33%
B3	0%

Same assay, conditions: non-allergic individuals; IL-31

Molecule	% non-allergic individuals with cytokine production in ex-vivo T cell assay IL-31
B1	0%
B2	0%
B3	0%

Same assay, conditions: non-allergic individuals; INF-g

Molecule	% non-allergic individuals with cytokine production in ex-vivo T cell assay INF-g
B1	33%
B2	17%
B3	0%
